Assay results as given in the DeepSol protein solubility set.

Assay: soluble on expression in E. coli; label from the status in PepcDB or PDB records

**Q.** For “MKKVLILGGGIAGVAAAIAFRKRGFEVEVVSDREFLFIYPIAIWIPVGTERFRNVAFPLEKVARKHGFSLTLDTVTAINASRDSVTLEKAGQRSDFDFLVIALGSDKMKHEGIEHTLSICGAPEHSIRLKEKIDALIERGHGKIAFGFGGNPKDPSAVRGGPGFELFFNLHHKLTKLGIRDNFEMTFFAPMAQPGAKMGQKALDMMAVMFKAKNFRQRYGKKITRFEVDGVVFEDGSKLESDLTMFIPAGSGHSVFRNSDLPLSEAGFVKIDDFCRVVGVDGWYAVGDSAALEGPEWKAKQGHIAEFMADCAANNCLAEHFGHQEPMRGYQEHLNVLCVMDTGDGAGFVYRTGHSEMFIPMPVVGHWLKKAWGYYYKLSKMKYIPRIPGMLEHHHHHH”, which “soluble on expression in E. coli” value is on record?
**A.** Its value is “soluble”.

**Q.** For “MVSQIGLLLPLSGDGQILGTTIQSGFNDAKGNSTIPVQVFDTSMNSVQDIIAQAKQAGIKTLVGPLLKQNLDVILADPAQIQGMDVLALNATPNSRAIPQLCYYGLSPEDEAESAANKMWNDGVRNPLVAMPQNDLGQRVGNAFNVRWQQLAGTDANIRYYNLPADVTYFVQENNSNTTALYAVASPTELAEMKGYLTNIVPNLAIYASSRASASATNTNTDFIAQMNGVQFSDIPFFKDTNSPQYQKLAKSTGGEYQLMRLYAMGADAWLLINQFNELRQVPGYRLSGLTGILSADTNCNVERDMTWYQYQDGAIVPVVDHHHHHH”, which “soluble on expression in E. coli” value is on record?
**A.** Its value is “soluble”.

**Q.** With “MSLARHRGKTEKLYVIPLGGLGEIGKNCMVVQYGDDIIVIDAGLAFPEEEMLGIDIVIPDFTYLLENREKVRGILITHGHEDHIGAVAYLLRNINIPVYATRLTLGLIEGKLAEMGMKLPAESKAVRAGDQVKLGPFTCEFIRVNHSIPDACAIAVTTPVGTILHTGDFKFDQTPIDGEFADYRRLTELGKRGILALLSDSTNAERPGYTPSERSVRPNMERVFREAKGRILMATFASNVHRIQQAIELAAEMGKKVAVVGRSMENTVRIALELGYLNVPEGTMVTVDELRRVPLNQQVILTTGSQGEPMAALSRMAVNDHKAIELYPGDTVLFAATAIPGNEKSVARTVNNLYRRGAEVIYDRSAGVHVSGHASQEEQKLMINLTRPKFFVPIHGEYRMLLKHKQLAEACGIPSENILIGENGTIFEFTRNSAQITGKVTSGQVLVDGLGVGDVGNIVLRDRKQLAQEGILIVVVAVDREEGTIVGGPDMVSRGFVYVRESEGLLDEAKERVKRALADQMQRGLPEWAVLKSSIRDVLSKYLYDKTHRRPMILPIIIEIEGHHHHHH” as the sequence, how does the “soluble on expression in E. coli” value read?
**A.** Its value is “soluble”.

**Q.** Which “soluble on expression in E. coli” value does the source give for “MSEEIISKKPSKPQASRKGKRAWRKNIDIQEIEQNLQDKRDEEIVLGKEVTDDFVIDDTPSSKSGKLPKKLKTKEILTNKSKIPALTNQRHQKKGENTIQGVKKTDLLRLIQLNGGKFKSEDKYVNRLEQDGIVNGSSQDLWDDTDNNEKKKIPDFMKSTAEVTKASVVPKTLKVNPIKITSNELTDKKIHAGKSYNPSLESWKELINQEYDIEYKRELTRQQIEEHRNKIKELMITLDDNMLSDSDDDEDDEDNDKVEEEEQLNANGEKDYSLSINKPNKIKIKTKTKRNKELKHKERVKLEQEIKDLKKQLKDLSNLDEILEKQAVKDQSQPNEKKRKRREKLFKYSLVETPLEVKLSDELSGNLKNLKPEGNLYYDQMLSLQSSGKIESRVPVNKKRKYTKKITEKWTYKDFK” here?
**A.** Its value is “not soluble”.

**Q.** For “MGSDKIHHHHHHMNLEDIFSILPEKIEREVKRISDYNNLQEIRIKVNKPLIIQIGKKEIISNYIATKEDLKKTFNVMSGYSIYSVEDELRQGYITIKGGHRVGICGDCVLEENKIKTIKNISSLNIRICKEVTGCSNSIMKKIVYGNTVLNTIIISPPNCGKTTLLRDITRNISYGINSIQFRGKKVCVIDERSEIGACLNGVNQMDIGIRTDILDNCPKSIGIMMAIRSMAPEVIICDEIGTYDDIKSILTAVNCGVKLITTIHGFGIEDLNSRDVFKDAIKNNVFERAIVLSGRSGVGTVEYIYDFYTKERERGL”, which “soluble on expression in E. coli” value is on record?
**A.** Its value is “not soluble”.

**Q.** For “MNEQAILQSAEAWVKKQLMDEYSGHDWYHIRRVTLMAKAIGEQEKVDVFVVQIAALFHDLIDDKLVDDPETAKQQLIDWMEAAGVPSQKIDHTMDIINTISFKGGHGQSLATREAMVVQDADRLDALGAIGIARTFAYSGNKGQPIYDPELPIRETMTVEEYRHGKSTAINHFYEKLFKLKDLMNTETGKQLAKERHVFMEQFIERFLSEWNGDMLEHHHHHH”, which “soluble on expression in E. coli” value is on record?
**A.** Its value is “soluble”.

**Q.** With “MTNQPTEIAIVGGGMVGGALALGLAQHGFSVTVIEHAEPAPFVADSQPDVRISAISAASVSLLKGLGVWDAVQAMRCHPYRRLETWEWETAHVVFDAAELKLPLLGYMVENTVLQQALWQALEAHPKVTLRVPTSLIALHRDNDLQELELKGGETIRAKLVIGADGANSQVRQMAGIGVHAWQYAQSCMLISVQCENDPGDSTWQQFTPDGPRAFLPLFDNWASLVWYDSPTRIRQLQNMNMAQLQAEIAKHFPSRLGYVTPLAAGAFPLTRRHALQYVQPGLALVGDAAHTIHPLAGQGVNLGYRDVDALIDVLVNARSYGEAWASYPVLKRYQMRRMADNFIMQSGMDLFYAGFSNNLPPLRFVRNLGLMAAERAGVLKRQALKYALGLLEHHHHHH” as the sequence, how does the “soluble on expression in E. coli” value read?
**A.** Its value is “not soluble”.

**Q.** With “MKEHHIPKNSIITVAGTVGVGKSTLTKTLAKRLGFKTSLEEVDHNPYLEKFYHDFERWSFHLQIYFLAERFKEQKTIFEAGGGFVQDRSIYEDTGIFAKMHADKGTMSKVDYKTYTSLFEAMVMTPYFPHPDVLIYLEGDLENILNRIEQRGREMELQTSRSYWEEMHTRYENWISGFNACPVLKLRIEDYDLLNDENSIENIVDQIASVIHDNQKKLEHHHHHH” as the sequence, how does the “soluble on expression in E. coli” value read?
**A.** Its value is “not soluble”.

**Q.** For “MGSDKIHHHHHHMLLVTSHDIQTALEKGIQYQKLTHLFGTLSLQETENHIILNYLPVDLKTEIGLLRAQCEISGTYKFIQDIYTMMGLKMPDMRIDLPFPKPSDPDTVAQYYAYYGDDLHFNSTHAAFSLSKNVLEIKIPSADIITHRIYEAKCIKEIERLNEQDHQIPPIIQYVQDYLELQQGIIPSMAETAFALKMPERTLRHQLQQLNTSYKQIREQIIKNKALKLMEYKEYSIEVIAEALGYSEPAAFNHAFKRWFGQSPRQYGKEFY”, which “soluble on expression in E. coli” value is on record?
**A.** Its value is “not soluble”.

**Q.** Which “soluble on expression in E. coli” value does the source give for “MGHHHHHHSHVTNLNLATGIINRSSASAPPTLRPIISPSGPTWSTQSDPQAPENHSSSPGSSFI” here?
**A.** The value was “not soluble”.

**Q.** For “MPEILKIKPTRMELLKLKRRVKLAERGHKLLKEKQDALIMEFFTIYDEALSLRRELIRKMEEAFNSLRRAQVDVGALRLKEIAIGVKPNKEIEIKTRNIMGVRVPLIEVPELKRKASERGYAFVSTTSTVDMAAEKFEEVLELAIRLAEVEESLKRLGKEIEKTKRRVNALEYIIIPRMENTIKFIEQHLDEMERENFFRLKRVKAILEARQSMLEHHHHHH”, which “soluble on expression in E. coli” value is on record?
**A.** The value was “soluble”.

**Q.** Which “soluble on expression in E. coli” value does the source give for “SAESPAFLSAKDEGSFAYLTIKDRTPQILTKVIDTLHRHKSEFFEKHGEEGIEAEKKAISLLSKLRNELQTDKPITPLVDKCVDTHIWNQYLEYQRSLLNEGDGEPRWFFSPWLFVECYMYRRIHEAIMQRQVYSQ” here?
**A.** The value was “soluble”.

**Q.** With “MTTCFCTGARSGPTVAISADLHQALRGIVAQRMATDPAHDLAHLDRVWVNVQAIASPGADRDVLLAASYLHDLVNLPKNAPDRHTASRRSADEAAPILRDLGFDEAQIAATGHAIAAHSFSAGISPESEEARILRDADRLDALGAIGIARNFSVSGSLGRALYDPADPFCERRTPDDALYSLDHWRVKLLSLPQGMLTDKGRALAEARIALMLRFLDDFAAEIGTPLPEGWTRGLEHHHHHH” as the sequence, how does the “soluble on expression in E. coli” value read?
**A.** The value was “soluble”.

**Q.** Which “soluble on expression in E. coli” value does the source give for “MGSDKIHHHHHHMLLPNTRLIAAEQLLSPVDAARNRRLADTALTTAKSAGASYCDVRVGRYLRQFVITREAQVENVVNAESSGVGVRVLADGAWGFAATNTLTSDGVATATRQAVAIAKANARLGGTPVQLAPVTPAGQVSWKTPIKKNAMEVPLQDKVALLMDVNAAALNAGATFVASRMFAINEQKYFASSDGSYIDQDVHRLWLPFTVTAVDKASGKFRTRDGLSSPMGMGYEYLDGAAGEKHRLPGGLIGYGRSYDAREDAIAAAKQAREKLTAPSVKAGKYDLVIDPSNLFLTIHESVGHPLELDRVLGYEANYAGTSFATLDKRDAGYRWGSDAVTFVADKTQPGSLGAVGYDDEGVKTKQWDLVKDGILVDYQCTRDQAHLLGKTASDGCSYADSWSNVQFQRMPNVSLAPGRTPLAVADMIKNVERGLYIHGRGSYSIDQQRYNAQFGGQLFYEIENGQVTRLVEDGAYQIRTPEFWNACSAVCDQRDFRLGGSFFDGKGQPSQVSAVSHGSSTARFDGINVINTARSLG” here?
**A.** Its value is “not soluble”.

**Q.** Which “soluble on expression in E. coli” value does the source give for “MGSDKIHHHHHHMHWRGEYSCLSDSWRVSTQEDGGRLQMLTFRSARPEDEDALYAISLATGDAGQDATPLYNDGRMVGHIYSVPYLRLWPDAVFVAEDEEGVCGYIAGALDTVLHEQRLEQEWWPHLRALYPDPGGDPQTWDADQRRAHFIHHPRNTPSWLTDPFPAHIHMNLLPRTQGKGGGTRLLSRWLDMARQNNVYGIHLGASERNHAGMRFWETRGFKHLDSHETPGSVWFGMALE” here?
**A.** Its value is “not soluble”.

**Q.** With “MIPLSIRVPASTANVGPGFDSVGIALSLYLHVVVKEKSDKWQVIHSFEDSIPTDDKNLIVSTACKVCPSLSPHIIEVTSNIPLTRGLGSSASAIVAGIELANQLGKLNLTIDQKVQIATNFEGHPDNVAASILGGTVIGALDGKNVSVVRIESKELGVISLIPNEELNTDESRSVLPDVFPFHEAVKASAISNVLVAALCQKKWKVVGEMMERDHFHEPYRLELVPLLPSIRKCAKEFGAYGTALSGAGPSIFILTPYEKRQEIAEQLARVFTSMKVCELEIDHRGITVNKKEHIGL” as the sequence, how does the “soluble on expression in E. coli” value read?
**A.** The value was “not soluble”.

**Q.** With “MRYCQFEGCSNTTEKGAYCSEHARKSRKKKKPINVYHHDNKSFYRTKEWQDVADFVYEREGGCCQRCGRFVFGRQAHRHHVIPIKKNEMLKLDPNNIRLLCPKCHVIEENEADEKKVFPSYFKKLEHHHHHH” as the sequence, how does the “soluble on expression in E. coli” value read?
**A.** The value was “soluble”.

**Q.** Which “soluble on expression in E. coli” value does the source give for “MGSDKIHHHHHHQSTGQVTLGVLTDMSSVYADSAGKGSVAAVQLAIEDVGGKALGQPVKLVSADYQMKTDVALSIAREWFDRDGVDAIFDVVNSGTALAINNLVKDKKKLAFITAAAADQIGGTECNGYGIGFLYNFTSIVKTVVQAQLAKGYKTWFLMLPDAAYGDLMNAAIRRELTAGGGQIVGSVRFPFETQDFSSYLLQAKASGAQLIVSTSGGAANINIMKQAREFGLPSKTQKVGGMIDILTDVKSAGLRVMQGQEYATSFYWNMDDRTRAFAKRFYAKMGKMPTNNQAGGYSAALQYLKAVNAIGSKDPQKVFAYLKTIKFDDAVTRHGTLRPGGRLVRDMYLVRAKKPEDQKGDWDYYDVVATIGPEQAFGPLSESRCAMDK” here?
**A.** Its value is “not soluble”.

**Q.** Which “soluble on expression in E. coli” value does the source give for “MRALILGGTGEGRDVAAILHVAGWRVTSSLAGRVSNPKLPVGEVRIGGFGGPAGLTQWLLREGVEVIIDATHPFAERISASAAEASRATGIPLIALHRPEWKPRPRDRWIPVTSMQEAADKAARDYHHIFLTIGRQQLAPFAHDAHNLYVVRAVEPPQVALPQRHRLILSRGPFTLESEKKLMIDNQIDCVVTKNSGGPLTHAKLDAARDLGIDVVMVQRPQLPKVTHVATSAAEVAEIIDSL” here?
**A.** Its value is “not soluble”.

**Q.** Which “soluble on expression in E. coli” value does the source give for “MRARIYQPARNAMTSGMAKTRKWVLEYAPGSAREVDPLMGWTSSSDTQSQVRLRFDSKEEALDYARAHGIDAVVTEPHKRKPNLRARGYGENFATDRRGPWTH” here?
**A.** Its value is “soluble”.

**Q.** For “MAHHHHHHMTATPEMAEYCLRVIAQQISAPDDPSVPLPVIPKEDSACFVTLTTLPQERLRGCIGSLQPGDLKKDMRRLALAAAFQDSRFPKVKEEELPTLRCCFSLLHTFEPCAAWNDWEIGKHGLIADYDGYSATYLPSVAEEQGWDHRETLVSLLEKAGFEKPVTDHVLGKVRLTRYQVSKALKDYKDIIAS”, which “soluble on expression in E. coli” value is on record?
**A.** Its value is “not soluble”.
